Measurements: the supplement of paper PMC9732359
± gives the uncertainty stated by the source.

Assay: protein stability index of a GFP-peptide fusion (yeast GPS) (PSI 1-4); higher = more stable; sorted into four equal gates, so the index is relative within each strain
In short: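 For each peptide, the protein stability index sums the read frequency in every gate after multiplying it by the gate number. Read frequencies came from plasmids that were PCR-amplified from each gate and Illumina-sequenced, with reads assigned to strains by barcodes. The gates were four equal bins of GFP/Cherry fluorescence ratio applied to mid-log yeast in leucine-free medium carrying a pooled library of tiled 17-residue yeast protein peptides fused downstream of GFP on a Cherry-expressing plasmid.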

Sequence	protein stability index (doa10∆)	protein stability index (pdr5∆)	protein stability index (san1∆)	protein stability index (ubr1∆)
KNDNIKKSVNKLDKQIN [POP6]	2.78 ± 0.049	2.87 ± 0.059	2.73 ± 0.059	2.78 ± 0.046
SRRTVNKEMETQRIMTN [YLR018C/POM34]	3.51 ± 0.12	3.15 ± 0.29	3.22 ± 0.26	3.1 ± 0.2
NVSFVLPDEKSDAMSID [YCG1]	3.31 ± 0.072	3.3 ± 0.051	3.25 ± 0.052	3.21 ± 0.067
GNVTELYGTAIGARSQG [PRE5]	2.11 ± 0.08	2.09 ± 0.15	1.94 ± 0.071	1.31 ± 0.044
YNNNTIRKLLEKINRMI [CSI1]	3 ± 0.18	2.79 ± 0.17		3.1 ± 0.19
NWLSIFNDFSNIKTSEW [REC8]	2.67 ± 0.082	2.95 ± 0.061	2.94 ± 0.091	2.91 ± 0.085
GKLEVPGYVDIVKTSSG [RPS19A]	3.38 ± 0.15	2.85 ± 0.092	3.19 ± 0.07	3.2 ± 0.06
NLQQDKTNFQDVILDYQ [REC8]	3.07 ± 0.069	3.19 ± 0.05	3.4 ± 0.071	3.12 ± 0.041
NHFIFNVESAGAMTPEE [RPC40]	2.01 ± 0.059	2.02 ± 0.061	2.4 ± 0.062	2.47 ± 0.045
FCPGEIVGKSNVLVTMP [YMR129W/POM152]	2.69 ± 0.12	2.3 ± 0.1	1.82 ± 0.27	2.51 ± 0.085
STTMDGANDLGFTASVS [MED1]	3.08 ± 0.092	3.1 ± 0.061	3.07 ± 0.072	2.99 ± 0.081
KTAYSIYLSQNELTDAI [RPN1]	2.48 ± 0.037	2.28 ± 0.038	2.71 ± 0.037	2.08 ± 0.023
NAKRSHMMKRWGYQMVW [POP1]	1.97 ± 0.052	2.38 ± 0.056	2.69 ± 0.077	2.67 ± 0.055
PDDEKFTDENTIVLSLN [RPC40]	3.46 ± 0.13	3.6 ± 0.085	3 ± 0.16	3.47 ± 0.087
FASIPVSNSISRLGEEN [SNU114]	2.31 ± 0.058	2.63 ± 0.051	1.81 ± 0.081	2.48 ± 0.059
IRKTPLAQKKAHLAEIQ [RPL3]	2.19 ± 0.1	1.39 ± 0.066	2.77 ± 0.12	1.26 ± 0.05
MVLEATVLVIDNSEYSR [RPN10]	1.79 ± 0.097	1.72 ± 0.12	1.85 ± 0.12	2.2 ± 0.046
DNVDFILSNVDLAMANS [RPB3]	3.07 ± 0.057	3.08 ± 0.054	3.12 ± 0.064	2.97 ± 0.05
SKEDYETLKRDRKQSQA [ARP7]	2.79 ± 0.071	2.9 ± 0.098	2.57 ± 0.093	2.6 ± 0.065
TPNTNSNSTPNANQQFL [SWI1]	3.11 ± 0.054	3.15 ± 0.047	2.93 ± 0.053	3.1 ± 0.035
PESIRQKKARTILQHLS [PRP8]	1.21 ± 0.099	1.53 ± 0.093	1.12 ± 0.21	1.21 ± 0.24
DVIATEPQGAVTHMDQI [SMD3]	3.03 ± 0.073	2.83 ± 0.084	2.28 ± 0.11	2.47 ± 0.088
NWIKPSDSEIPPLLVYK [PRP8]	2.16 ± 0.065	2.24 ± 0.056	2.21 ± 0.075	2.12 ± 0.063
INIQKKLEPKEIVRDIL [SIR4]	3.05 ± 0.085	3.19 ± 0.12	2.85 ± 0.12	2.86 ± 0.11
VTLDFGNIFADLLPNSF [SMC2]	2.8 ± 0.1	2.86 ± 0.067	3.07 ± 0.07	2.91 ± 0.064
EEKQKSYKFPRGTTAVL [PUP1]	3.37 ± 0.12	3.11 ± 0.13	3.14 ± 0.099	2.91 ± 0.088
LNARMFLKYYGAHKFLD [SIR2]	1.89 ± 0.092	1.68 ± 0.097	1.21 ± 0.12	1.69 ± 0.066

Sequence	protein stability index (doa10∆)	protein stability index (pdr5∆)	protein stability index (san1∆)	protein stability index (ubr1∆)
DPDIPMTIDLEPIEESS [IRR1]	3.06 ± 0.086	3.45 ± 0.1	3.01 ± 0.13	3.15 ± 0.11
QLSNGIVVATEHNPSAH [COR1]	2.88 ± 0.075	3.08 ± 0.1	3.2 ± 0.059	2.52 ± 0.074
VTLVNGKRRMNPGPSVQ [RPS30A]	2.69 ± 0.049	2.94 ± 0.031	2.81 ± 0.047	2.87 ± 0.033
LGVASFHGTSTKANDKN [FAS2]	3.09 ± 0.079	2.95 ± 0.092	3.11 ± 0.075	3.02 ± 0.069
DTKNLYVIKALQSLTSK [RPS10A]	1.75 ± 0.077	1.95 ± 0.077	1.3 ± 0.16	1.34 ± 0.078
RTVAGFSNVELPQCIIP [ARP7]	2.8 ± 0.05	2.76 ± 0.054	2.56 ± 0.051	2.7 ± 0.034
DLKKLNLNVYIQVFEKP [CDC53]	2.23 ± 0.11	2.5 ± 0.17	2.33 ± 0.27	2.78 ± 0.09
GAVIQLLKSTGLHPFEV [RPB4]	3.32 ± 0.13	3.19 ± 0.14	3.07 ± 0.2	2.99 ± 0.084
MATIASEYSSEASNTPI [PRE7]	2.53 ± 0.094	2.76 ± 0.14	2.83 ± 0.08	2.93 ± 0.13
DDYYKEIIGGGSKSASK [ISW2]	2.37 ± 0.12	3.09 ± 0.11	3 ± 0.09	2.69 ± 0.086
ANIELTWAEGTFEQFKD [RPC37]	3.25 ± 0.12	3.18 ± 0.076	3.31 ± 0.16	3.32 ± 0.093
VRQKIKTLKRMIKESST [POP1]	1.47 ± 0.039	1.68 ± 0.052	1.45 ± 0.081	1.93 ± 0.044
TCSYVEEAGSPLVYRHE [RPB9]	3.06 ± 0.13	2.92 ± 0.15	3.28 ± 0.11	2.75 ± 0.28
LSGNSVEDVSQNAADLQ [RPL9A]	3.31 ± 0.15	3.55 ± 0.15	2.78 ± 0.13	3.31 ± 0.058
LKLLVKLYTFLARRTDA [RPL18A]	2.26 ± 0.073	1.99 ± 0.056	1.75 ± 0.065	1.97 ± 0.059
FKQIKSADCELLGIDAT [RPO31]	1.62 ± 0.083	1.8 ± 0.089	1.42 ± 0.16	2.08 ± 0.053
QDKDAIRKQPDDIINND [SIR2]	2.48 ± 0.089	2.63 ± 0.049	2.82 ± 0.078	2.89 ± 0.061
ISLSFSRPASYGYFSVG [SIR4]	1.78 ± 0.073	1.82 ± 0.06	1.81 ± 0.11	2.07 ± 0.052
EHGLQITHTENYNDLIV [BRN1]	3.5 ± 0.27	2.81 ± 0.18		2.77 ± 0.089
VQQRYTQSGGVRPFGVS [PRE6]	2.8 ± 0.22			
ELVTISWVQPRIISGDQ [RPN9]	2.44 ± 0.12	1.96 ± 0.087	2.27 ± 0.12	2.98 ± 0.1
QRDRHTLAYDRGHRIRR [PRP8]	3.01 ± 0.1	3.21 ± 0.074	2.83 ± 0.095	2.87 ± 0.048
ESQPKQTGTRRNSKLLN [MCD1]	3.29 ± 0.099	3.16 ± 0.12	3.19 ± 0.079	3.12 ± 0.076
DQAMEKKPSPQTIPIQI [YGR119C/NUP57]		2.85 ± 0.24		
LYASDYASYFPYLLETY [RPN7]	1.62 ± 0.077	1.83 ± 0.086	1.39 ± 0.09	1.18 ± 0.044
EEIVSNSSRFSDPMLQR [YCS4]	3.07 ± 0.096	2.95 ± 0.082	3.28 ± 0.096	3.07 ± 0.056
